Assay results from patent US20110190218A1 (KARLSRUHE INSTITUTE OF TECHNOLOGY, published 2011).

Molecular target: GST-Bag-1L-(202-345) (human, UniProt P08515 1-218 = GST; Q99933 202-345)
Assay: GST pull-down from lysates of Bag-1L-transfected cells, immunoblot with Bag-1L specific antibody

B1: Bag-1L (in lysates from Bag-1L-transfected cells) (other)
chain: MAQRGGARRPRGDRERLGSRLRALRPGREPRQSEPPAQRGPPPSGRPPARSTASGHDRPTRGAAAGARRPRMKKKTRRRSTRSEELTRSEELTLSEEATWSEEATQSEEATQGEEMNRSQEVTRDEESTRSEEVTREEMAAAGLTVTVTHSNEKHDLHVTSQQGSSEPVVQDLAQVVEEVIGVPQSFQKLIFKGKSLKEMETPLSALGIQDGCRVMLIGKKNSPQEEVELKKLKHLEKSVEKIADQLEELNKELTGIQQGFLPKDLQAEALCKLDRRVKATIEQFMKILEEIDTLILPENFKDSRLKRKGLVKKVQAFLAECDTVEQNICQETERLQSTNFALAE
notes: Untagged Bag-1L as the soluble partner in the test for dimerization; also called human Bag-1L; p50
B1: no binding.
